Test results taken from patent publication US20050048055A1.

Molecular target: mouse CD40 on BALB/c thymocytes (mouse) (UniProt P27512)
Experiment: cell-based or functional assay

Sequence of UniProt P27512 (P27512 20-289): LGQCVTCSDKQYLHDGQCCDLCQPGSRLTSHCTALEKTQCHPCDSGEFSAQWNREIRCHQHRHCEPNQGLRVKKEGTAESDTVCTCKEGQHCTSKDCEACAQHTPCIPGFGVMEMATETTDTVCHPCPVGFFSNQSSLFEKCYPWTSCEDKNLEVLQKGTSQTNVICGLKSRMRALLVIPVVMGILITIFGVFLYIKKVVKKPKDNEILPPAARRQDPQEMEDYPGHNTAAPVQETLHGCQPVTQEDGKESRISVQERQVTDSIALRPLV

## rat IgG anti-mouse CD40, 1C10 (antibody)
  increase in Vα8 expression in gated DP thymocytes: 12%
  percent Vα11+ thymocytes: 3.3%
